Columns and labels:
[1] = target: PEG3-PYY(PEG3-Cys-4Abu-Dig) / PEG3-IK(PEG3-Cys-4Abu-Dig)-Pqa-…-MeArg-Y-NH2; assay: mass spectrometry of the covalent disulfide conjugate, 2:1 peptide to antibody, 1 mM GSH / 5 mM GSSG
[2] = target: Ac-PYY(PEG3-Cys-4Abu-Dig) / Ac-IK(PEG3-Cys-4Abu-Dig)-Pqa-…-MeArg-Y-NH2; assay: mass spectrometry of the covalent disulfide conjugate, 2:1 peptide to antibody, no redox agents
[3] = target: Ac-PYY(PEG3-Cys-4Abu-NH2) / Ac-IK(PEG3-Cys-4Abu-NH2)-Pqa-…-MeArg-Y-NH2; assay: mass spectrometry, non-haptenylated peptide 2.1:1 to antibody
[4] = target: helicar motif amino acid sequence cysteine variant 2, …(5-Fluo)-OH x TFA; assay: covalent disulfide coupling, 2.5 molar excess of peptide
[5] = target: Ac-PYY(PEG3-Cys-PEG2-5-Fluo) / Ac-IK(PEG3-Cys-PEG2-5-Fluo)-Pqa-…-MeArg-Y-NH2; assay: mass spectrometry of the covalent disulfide conjugate, 2.5:1 peptide to antibody, no redox agents

B1: humanized anti-digoxigenin antibody VH52bC (antibody, from a related filing, V domains shown)
VH: QVQLVESGGGLVKPGGSLRLSCAASGFTFSDYAMSWIRQAPGKGLEWVSSINICATYIYYADSVKGRFTISRDNAKNSLYLQMNSLRAEDTAVYYCARPGSPYEYDKAYYSMAYWGQGTTVTVSS
VL: DIQMTQSPSSLSASVGDRVTITCRASQDIKNYLNWYQQKPGKAPKLLIYYSSTLLSGVPSRFSGSGSGTDFTLTISSLQPEDFATYYCQQSITLPPTFGCGTKVEIK
% of detected species = antibody coupled to 1 peptide molecule [1]: 46%
% of detected species = antibody coupled to 2 peptide molecules [1]: 43%
% of detected species = uncoupled antibody [1]: 11%
% of detected species = antibody coupled to 1 peptide molecule [2]: 40%
% of detected species = antibody coupled to 2 peptide molecules [2]: 7.4%
% of detected species = uncoupled antibody [2]: 52%
% of detected species = antibody coupled to 1 peptide molecule [3]: 51%
% of detected species = antibody coupled to 2 peptide molecules [3]: 17%
% of detected species = uncoupled antibody [3]: 32%

B2: humanized anti-digoxigenin antibody (antibody, from a related filing, V domains shown)
VH: QVQLVESGGGLVKPGGSLRLSCAASGFTFSDYAMSWIRQAPGKGLEWVSSINIGATYIYYADSVKGRFTISRDNAKNSLYLQMNSLRAEDTAVYYCARPGSPYEYDKAYYSMAYWGQGTTVTVSS
VL: DIQMTQSPSSLSASVGDRVTITCRASQDIKNYLNWYQQKPGKAPKLLIYYSSTLLSGVPSRFSGSGSGTDFTLTISSLQPEDFATYYCQQSITLPPTFGGGTKVEIK
% of detected species = uncoupled antibody [3]: 100%

B3: anti-helicar motif amino acid sequence antibody (0155), light chain variable domain N55C variant (antibody, V domains shown)
V domain 1: QAVVTQEPSLTVSPGGTVTLTCGSSTGAVTTSNYASWVQQKPGQAFTGLIGGTNNRAPWTPARFSGSLLGGKAALTLSGAQPEDEAEYYCALWYSNHWVFGGGTKLTVL
V domain 2: DAVVTQESALTTSPGETVTLTCRSSTGAVTTSNYASWVQEKPDHLFTGLIGGTNCRAPGVPARFSGSLIGDKAALTITGAQTEDEAIYFCALWYSNHWVFGGGTKLTVL
% of antibody covalently conjugated to one helicar motif amino acid sequence [4]: 40%
% of antibody covalently conjugated to two helicar motif amino acid sequences [4]: 43%
% of antibody not conjugated [4]: 17%

B4: anti-fluorescein antibody VH52bC (antibody, V domains shown)
VH: GVKLDETGGGLVQPGGAMKLSCVTSGFTFGHYWMNWVRQSPEKGLEWVAQFRNCPYNYETYYSDSVKGRFTISRDDSKSSVYLQMNNLRVEDTGIYYCTGASYGMEYLGQGTSVTVSS
VL: DVVMTQTPLSLPVSLGDQASISCRSSQSLVHSNGNTYLRWYLQKPGQSPKVLIYKVSNRVSGVPDRFSGSGSGTDFTLKINRVEAEDLGVYFCSQSTHVPWTFGGGTKLEIK
% of detected species = antibody coupled to 1 peptide molecule [5]: 5%
% of detected species = antibody coupled to 2 peptide molecules [5]: 95%

B5: anti-fluorescein antibody VH28C (antibody, from a related filing, V domains shown, part only)
VH: GVKLDETGGGLVQPGGAMKLSCVTSGFCFGHYWMNWVRQSPEKGLEWVAQFRNKPYNYETYYSDSVKGRFTISRDDSKSSVYLQMNNLRVEDTGIYYCTGASYGMEYLGQGTSVTVSS
VL: DVVMTQTPLSLPVSLGDQASISCRSSQSLVHSNGNTYLRWYLQKPGQSPKVLIYKVSNRVSGVPDRFSGSGSGTDFTLKINRVEAEDLGVYFCSQSTHVPWTFGGGTKLEIK
% of detected species = antibody coupled to 2 peptide molecules [5]: 100%

Reference: patent US20210069338A1
